Reference: the Immune Epitope Database (IEDB)

Legend:
HLA-A*24:02 = test: IEDB peptide-MHC binding, purified MHC/competitive/fluorescence; ≥ and ≤ were set here for values at or beyond the usual limits of such assays; details: source organism: Zaire ebolavirus
HLA-B*08:01 = test: as above; details: source organism: Zaire ebolavirus
HLA-A*02:01 [1] = test: as above; details: source organism: Zaire ebolavirus
HLA-A*24:03 = test: IEDB peptide-MHC binding, purified MHC/competitive/fluorescence; filed as Kd, often an IC50 or EC50 that approximates it; ≥ and ≤ were set here for values at or beyond the usual limits of such assays; details: source organism: Brucella melitensis bv. 1 str. 16M
HLA-B*18:01 = test: as above
HLA-A*29:02 = test: as above; details: source organism: Brucella melitensis bv. 1 str. 16M
HLA-B*39:01 = test: as above; details: source organism: Brucella melitensis bv. 1 str. 16M
HLA-A*23:01 = test: as above; details: source organism: Brucella melitensis bv. 1 str. 16M
HLA-B*46:01 = test: as above
HLA-B*27:03 = test: as above; details: source organism: Brucella melitensis bv. 1 str. 16M
HLA-A*02:03 = test: as above; details: source organism: Brucella melitensis bv. 1 str. 16M
HLA-A*03:01 [2] = test: as above; details: source organism: Brucella melitensis bv. 1 str. 16M
HLA-B*15:01 [3] = test: as above; details: source organism: Brucella melitensis bv. 1 str. 16M
HLA-A*02:01 [4] = test: as above; details: source organism: Brucella melitensis bv. 1 str. 16M
HLA-B*51:01 = test: as above; details: source organism: Brucella melitensis bv. 1 str. 16M
HLA-A*02:16 = test: as above; details: source organism: Brucella melitensis bv. 1 str. 16M
HLA-B*57:01 = test: as above; details: source organism: Brucella melitensis bv. 1 str. 16M
HLA-A*02:12 = test: as above; details: source organism: Brucella melitensis bv. 1 str. 16M
HLA-A*69:01 = test: as above; details: source organism: Brucella melitensis bv. 1 str. 16M
HLA-A*26:01 = test: as above
HLA-A*02:11 = test: as above; details: source organism: Brucella melitensis bv. 1 str. 16M
HLA-A*02:19 = test: as above; details: source organism: Brucella melitensis bv. 1 str. 16M
HLA-B*15:17 = test: as above; details: source organism: Brucella melitensis bv. 1 str. 16M
HLA-A*03:01 [5] = test: IEDB peptide-MHC binding, purified MHC/competitive/fluorescence; ≥ and ≤ were set here for values at or beyond the usual limits of such assays; details: source organism: Zaire ebolavirus
HLA-B*15:01 [6] = test: as above; details: source organism: Zaire ebolavirus
HLA-A*11:01 = test: as above; details: source organism: Zaire ebolavirus
HLA-B*07:02 = test: as above; details: source organism: Zaire ebolavirus
HLA-A*02:01 [7] = test: IEDB peptide-MHC binding, purified MHC/direct/fluorescence; filed as Kd, often an IC50 or EC50 that approximates it; ≥ and ≤ were set here for values at or beyond the usual limits of such assays; details: source organism: Zaire ebolavirus
[8] = source organism: Brucella melitensis bv. 1 str. 16M
[9] = source organism: Zaire ebolavirus

Work on TNFLIKFLL yielded an IC50 (HLA-A*24:02) of 3.2 µM, an IC50 (HLA-B*08:01) of at least 523 µM and an IC50 (HLA-A*02:01 [1]) of at least 181 µM.

AVGVVCTGL gave a Kd (HLA-A*24:03) of at least 20 µM, a Kd (HLA-B*18:01; [8]) of at least 20 µM and a Kd (HLA-A*29:02) of at least 20 µM. It also gave a Kd (HLA-B*39:01) of at least 20 µM, a Kd (HLA-A*23:01) of at least 20 µM and a Kd (HLA-B*46:01; [8]) of at least 20 µM. The Kd (HLA-B*27:03) was at least 20 µM, the Kd (HLA-A*02:03) was at least 20 µM and the Kd (HLA-A*03:01 [2]) was at least 20 µM. For the same sequence, the Kd (HLA-B*15:01 [3]) was at least 20 µM, the Kd (HLA-A*02:01 [4]) was at least 20 µM and the Kd (HLA-B*51:01) was at least 20 µM. The Kd (HLA-A*02:16) was 0.273 µM, the Kd (HLA-B*57:01) was at least 20 µM and the Kd (HLA-A*02:12) was at least 20 µM. It also gave a Kd (HLA-A*69:01) of at least 20 µM, a Kd (HLA-A*26:01; [8]) of at least 20 µM and a Kd (HLA-A*02:11) of at least 20 µM. For the same sequence, the Kd (HLA-A*02:19) was at least 20 µM and the Kd (HLA-B*15:17) was at least 20 µM.

With NHKNKFMAI the IC50 (HLA-A*24:02) was 19.4 µM and the IC50 (HLA-B*08:01) was 15.9 µM.

RLMRTNFLI was tested, and the IC50 (HLA-A*24:02) was 0.0213 µM, the IC50 (HLA-B*08:01) was 58.7 µM and the IC50 (HLA-A*03:01 [5]) was 3.42 µM. For the same sequence, the IC50 (HLA-B*15:01 [6]) was 11.4 µM, the IC50 (HLA-A*02:01 [1]) was 0.514 µM and the IC50 (HLA-A*11:01) was 3.95 µM. For the same sequence, the IC50 (HLA-B*07:02) was 15.9 µM, the Kd (HLA-A*02:01 [7]) was 0.0175 µM and the Kd (HLA-B*18:01; [9]) was at least 20 µM. For the same sequence, the Kd (HLA-B*46:01; [9]) was at least 20 µM and the Kd (HLA-A*26:01; [9]) was at least 20 µM.
